The test concerns the target 人PD-1 (程序性死亡受体1) (human) (UniProt Q15116). In words: flow cytometry receptor occupancy on patients' peripheral blood T lymphocytes (CD45RA-); bound toripalimab detected with PE-labelled anti-human IgG4 Fc, total PD-1 after saturation with toripalimab; dose groups 1, 3 and 10 mg/kg Q2W. A general note: Flow cytometry measures light scatter and fluorescence of single cells or particles in a stream.
UniProt Q15116, sequence (Q15116 25-288): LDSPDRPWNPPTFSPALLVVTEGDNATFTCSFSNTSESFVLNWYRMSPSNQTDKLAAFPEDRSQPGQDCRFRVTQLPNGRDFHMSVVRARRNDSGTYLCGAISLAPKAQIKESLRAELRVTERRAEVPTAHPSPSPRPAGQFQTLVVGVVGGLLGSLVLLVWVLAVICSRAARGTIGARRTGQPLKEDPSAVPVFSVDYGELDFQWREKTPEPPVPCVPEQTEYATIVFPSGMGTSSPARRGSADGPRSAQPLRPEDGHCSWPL

As for 特瑞普利单抗(Toripalimab) (antibody), the PD-1受体占位率(RO) is above 80%.

(Values after patent CN112972675A.)
